± gives the uncertainty stated by the source.
B1: POU domain, class 5, transcription factor 1, residues 134 to 212; numbered along this chain, Q01860 (parent)
chain: EESQDIKALQKELEQFAKLLKQKRITLGYTQADVGLTLGVLFGKVFSQTTICRFEALQLSFKNMCKLRPLLQKWVEEAD

Variants of: B1
Assay: abundance fitness (aPCA) (normalised: wild type 0, dead -1); higher = more abundant; growth selection in yeast, the domain comes from the species named
Details: Homo sapiens

Variant | abundance fitness
EESQDIKALQKELEQFAKLLKQKRITLGYTQADVGLTLGVLFGKVFSQTTICRFEALQLSFKNMCKLRPLLQKWIEEAD [V75I] | 0.056 ± 0.22
EESQDIKALQKELEQFAKLLKQKRITLGYTQADVGLTLGVLFGKVFSQTTICRFEALQLSFKNMCKLRPLLQKWTEEAD [V75T] | -0.299 ± 0.23
EESQDIKALQKELEQFAKLLKQKRITLGYTQADVGLTLGVLFGKVFSQTTICRFEALQLSFKNMCKLRPLLQKWCEEAD [V75C] | -0.343 ± 0.26
EESQDIKALQKELEQFAKLLKQKRITLGYTQADVGLTLGVLFGKVFSQTTICRFEALQLSFKNMCKLRPLLQKWPEEAD [V75P] | -0.203 ± 0.24
EESQDIKALQKELEQFAKLLKQKRITLGYTQADVGLTLGVLFGKVFSQTTICRFEALQLSFKNMCKLRPLLQKWREEAD [V75R] | -0.661 ± 0.25
EESQDIKALQKELEQFAKLLKQKRITLGYTQADVGLTLGVLFGKVFSQTTICRFEALQLSFKNMCKLRPLLQKWGEEAD [V75G] | -0.645 ± 0.29
EESQDIKALQKELEQFAKLLKQKRITLGYTQADVGLTLGVLFGKVFSQTTICRFEALQLSFKNMCKLRPLLQKWSEEAD [V75S] | -0.106 ± 0.24
EESQDIKALQKELEQFAKLLKQKRITLGYTQADVGLTLGVLFGKVFSQTTICRFEALQLSFKNMCKLRPLLQKWWEEAD [V75W] | -0.802 ± 0.39
EESQDIKALQKELEQFAKLLKQKRITLGYTQADVGLTLGVLFGKVFSQTTICRFEALQLSFKNMCKLRPLLQKWHEEAD [V75H] | -0.025 ± 0.36
EESQDIKALQKELEQFAKLLKQKRITLGYTQADVGLTLGVLFGKVFSQTTICRFEALQLSFKNMCKLRPLLQKWDEEAD [V75D] | -0.413 ± 0.3
EESQDIKALQKELEQFAKLLKQKRITLGYTQADVGLTLGVLFGKVFSQTTICRFEALQLSFKNMCKLRPLLQKWEEEAD [V75E] | -0.353 ± 0.48
EESQDIKALQKELEQFAKLLKQKRITLGYTQADVGLTLGVLFGKVFSQTTICRFEALQLSFKNMCKLRPLLQKWKEEAD [V75K] | -0.056 ± 0.31
EESQDIKALQKELEQFAKLLKQKRITLGYTQADVGLTLGVLFGKVFSQTTICRFEALQLSFKNMCKLRPLLQKWAEEAD [V75A] | -0.815 ± 0.32
EESQDIKALQKELEQFAKLLKQKRITLGYTQADVGLTLGVLFGKVFSQTTICRFEALQLSFKNMCKLRPLLQKWMEEAD [V75M] | -0.293 ± 0.23
EESQDIKALQKELEQFAKLLKQKRITLGYTQADVGLTLGVLFGKVFSQTTICRFEALQLSFKNMCKLRPLLQKWQEEAD [V75Q] | -0.206 ± 0.34
EESQDIKALQKELEQFAKLLKQKRITLGYTQADVGLTLGVLFGKVFSQTTICRFEALQLSFKNMCKLRPLLMKWVEEAD [Q72M] | -0.31 ± 0.16
EESQDIKALQKELEQFAKLLKQKRITLGYTQADVGLTLGVLFGKVFSQTTICRFEALQLSFKNMCKLRPLLPKWVEEAD [Q72P] | -0.438 ± 0.21
EESQDIKALQKELEQFAKLLKQKRITLGYTQADVGLTLGVLFGKVFSQTTICRFEALQLSFKNMCKLRPLLVKWVEEAD [Q72V] | -0.337 ± 0.13
EESQDIKALQKELEQFAKLLKQKRITLGYTQADVGLTLGVLFGKVFSQTTICRFEALQLSFKNMCKLRPLLYKWVEEAD [Q72Y] | -0.582 ± 0.41
EESQDIKALQKELEQFAKLLKQKRITLGYTQADVGLTLGVLFGKVFSQTTICRFEALQLSFKNMCKLRPLLTKWVEEAD [Q72T] | -0.36 ± 0.17
EESQDIKALQKELEQFAKLLKQKRITLGYTQADVGLTLGVLFGKVFSQTTICRFEALQLSFKNMCKLRPLLIKWVEEAD [Q72I] | -0.119 ± 0.3
EESQDIKALQKELEQFAKLLKQKRITLGYTQADVGLTLGVLFGKVFSQTTICRFEALQLSFKNMCKLRPLLWKWVEEAD [Q72W] | -0.837 ± 0.31
EESQDIKALQKELEQFAKLLKQKRITLGYTQADVGLTLGVLFGKVFSQTTICRFEALQLSFKNMCKLRPLLKKWVEEAD [Q72K] | -0.025 ± 0.18

Variant | abundance fitness
EESQDIKALQKELEQFAKLLKQKRITLGYTQADVGLTLGVLFGKVFSQTTICRFEALQLSFKNMCKLRPLLRKWVEEAD [Q72R] | -0.309 ± 0.096
EESQDIKALQKELEQFAKLLKQKRITLGYTQADVGLTLGVLFGKVFSQTTICRFEALQLSFKNMCKLRPLLLKWVEEAD [Q72L] | -0.323 ± 0.14
EESQDIKALQKELEQFAKLLKQKRITLGYTQADVGLTLGVLFGKVFSQTTICRFEALQLSFKNMCKLRPLLSKWVEEAD [Q72S] | -0.371 ± 0.15
EESQDIKALQKELEQFAKLLKQKRITLGYTQADVGLTLGVLFGKVFSQTTICRFEALQLSFKNMCKLRPLLQKWVFEAD [E76F] | -0.155 ± 0.27
EESQDIKALQKELEQFAKLLKQKRITLGYTQADVGLTLGVLFGKVFSQTTICRFEALQLSFKNMCKLRPLLQKWVGEAD [E76G] | -0.644 ± 0.18
EESQDIKALQKELEQFAKLLKQKRITLGYTQADVGLTLGVLFGKVFSQTTICRFEALQLSFKNMCKLRPLLQKWVSEAD [E76S] | -0.188 ± 0.15
EESQDIKALQKELEQFAKLLKQKRITLGYTQADVGLTLGVLFGKVFSQTTICRFEALQLSFKNMCKLRPLLQKWVHEAD [E76H] | -0.032 ± 0.32
EESQDIKALQKELEQFAKLLKQKRITLGYTQADVGLTLGVLFGKVFSQTTICRFEALQLSFKNMCKLRPLLQKWVQEAD [E76Q] | -0.173 ± 0.26
EESQDIKALQKELEQFAKLLKQKRITLGYTQADVGLTLGVLFGKVFSQTTICRFEALQLSFKNMCKLRPLLQKWVMEAD [E76M] | -0.017 ± 0.22
EESQDIKALQKELEQFAKLLKQKRITLGYTQADVGLTLGVLFGKVFSQTTICRFEALQLSFKNMCKLRPLLQKWVPEAD [E76P] | -0.892 ± 0.39
EESQDIKALQKELEQFAKLLKQKRITLGYTQADVGLTLGVLFGKVFSQTTICRFEALQLSFKNMCKLRPLLQKWVCEAD [E76C] | -0.066 ± 0.19
EESQDIKALQKELEQFAKLLKQKRITLGYTQADVGLTLGVLFGKVFSQTTICRFEALQLSFKNMCKLRPLLQKWVDEAD [E76D] | 0.003 ± 0.19
EESQDIKALQKELEQFAKLLKQKRITLGYTQADVGLTLGVLFGKVFSQTTICRFEALQLSFKNMCKLRPLLQKWVVEAD [E76V] | -0.434 ± 0.15
EESQDIKALQKELEQFAKLLKQKRITLGYTQADVGLTLGVLFGKVFSQTTICRFEALQLSFKNMCKLRPLLQKWVREAD [E76R] | -0.315 ± 0.095
EESQDIKALQKELEQFAKLLKQKRITLGYTQADVGLTLGVLFGKVFSQTTICRFEALQLSFKNMCKLRPLLQKWVKEAD [E76K] | -0.133 ± 0.14
EESQDIKALQKELEQFAKLLKQKRITLGYTQADVGLTLGVLFGKVFSQTTICRFEALQLSFKNMCKLRPLLQKWVAEAD [E76A] | -0.139 ± 0.13
EESQDIKALQKELEQFAKLLKQKRITLGYTQADVGLTLGVLFGKVFSQTTICRFEALQLSFKNMCKLRPLLQKWVLEAD [E76L] | -0.368 ± 0.15
EESQDIKALQKELEQFAKLLKQKRITLGYTQADVGLTLGVLFGKVFSQTTICRFEALQLSFKNMCKLRPLLQKWVWEAD [E76W] | -0.425 ± 0.19
EESQDIKALQKELEQFAKLLKQKRITLGYTQADVGLTLGVLFGKVFSQTTICRFEALQLSFKNMCKLRPLLQGWVEEAD [K73G] | -0.386 ± 0.1
EESQDIKALQKELEQFAKLLKQKRITLGYTQADVGLTLGVLFGKVFSQTTICRFEALQLSFKNMCKLRPLLQAWVEEAD [K73A] | -0.131 ± 0.092
EESQDIKALQKELEQFAKLLKQKRITLGYTQADVGLTLGVLFGKVFSQTTICRFEALQLSFKNMCKLRPLLQPWVEEAD [K73P] | -0.506 ± 0.21
EESQDIKALQKELEQFAKLLKQKRITLGYTQADVGLTLGVLFGKVFSQTTICRFEALQLSFKNMCKLRPLLQEWVEEAD [K73E] | -0.595 ± 0.17
EESQDIKALQKELEQFAKLLKQKRITLGYTQADVGLTLGVLFGKVFSQTTICRFEALQLSFKNMCKLRPLLQSWVEEAD [K73S] | -0.659 ± 0.18

Variant | abundance fitness
EESQDIKALQKELEQFAKLLKQKRITLGYTQADVGLTLGVLFGKVFSQTTICRFEALQLSFKNMCKLRPLLQCWVEEAD [K73C] | -0.397 ± 0.17
EESQDIKALQKELEQFAKLLKQKRITLGYTQADVGLTLGVLFGKVFSQTTICRFEALQLSFKNMCKLRPLLQIWVEEAD [K73I] | -0.448 ± 0.34
EESQDIKALQKELEQFAKLLKQKRITLGYTQADVGLTLGVLFGKVFSQTTICRFEALQLSFKNMCKLRPLLQMWVEEAD [K73M] | -0.799 ± 0.28
EESQDIKALQKELEQFAKLLKQKRITLGYTQADVGLTLGVLFGKVFSQTTICRFEALQLSFKNMCKLRPLLQQWVEEAD [K73Q] | -0.1 ± 0.14
EESQDIKALQKELEQFAKLLKQKRITLGYTQADVGLTLGVLFGKVFSQTTICRFEALQLSFKNMCKLRPLLQHWVEEAD [K73H] | -0.349 ± 0.33
EESQDIKALQKELEQFAKLLKQKRITLGYTQADVGLTLGVLFGKVFSQTTICRFEALQLSFKNMCKLRPLLQFWVEEAD [K73F] | -0.566 ± 0.34
EESQDIKALQKELEQFAKLLKQKRITLGYTQADVGLTLGVLFGKVFSQTTICRFEALQLSFKNMCKLRPLLQWWVEEAD [K73W] | -0.474 ± 0.14
EESQDIKALQKELEQFAKLLKQKRITLGYTQADVGLTLGVLFGKVFSQTTICRFEALQLSFKNMCKLRPLLQTWVEEAD [K73T] | -0.083 ± 0.12
EESQDIKALQKELEQFAKLLKQKRITLGYTQADVGLTLGVLFGKVFSQTTICRFEALQLSFKNMCKLRPLLQYWVEEAD [K73Y] | -0.595 ± 0.37
EESQDIKALQKELEQFAKLLKQKRITLGYTQADVGLTLGVLFGKVFSQTTICRFEALQLSFKNMCKLRPLLQLWVEEAD [K73L] | -0.289 ± 0.11
EESQDIKALQKELEQFAKLLKQKRITLGYTQADVGLTLGVLFGKVFSQTTICRFEALQLSFKNMCKLRPLLQKWVEHAD [E77H] | 0.144 ± 0.35
EESQDIKALQKELEQFAKLLKQKRITLGYTQADVGLTLGVLFGKVFSQTTICRFEALQLSFKNMCKLRPLLQKWVELAD [E77L] | -0.124 ± 0.12
EESQDIKALQKELEQFAKLLKQKRITLGYTQADVGLTLGVLFGKVFSQTTICRFEALQLSFKNMCKLRPLLQKWVEAAD [E77A] | -0.124 ± 0.099
EESQDIKALQKELEQFAKLLKQKRITLGYTQADVGLTLGVLFGKVFSQTTICRFEALQLSFKNMCKLRPLLQKWVEDAD [E77D] | -0.107 ± 0.16
EESQDIKALQKELEQFAKLLKQKRITLGYTQADVGLTLGVLFGKVFSQTTICRFEALQLSFKNMCKLRPLLQKWVEKAD [E77K] | -0.074 ± 0.17
EESQDIKALQKELEQFAKLLKQKRITLGYTQADVGLTLGVLFGKVFSQTTICRFEALQLSFKNMCKLRPLLQKWVEIAD [E77I] | -0.079 ± 0.23
EESQDIKALQKELEQFAKLLKQKRITLGYTQADVGLTLGVLFGKVFSQTTICRFEALQLSFKNMCKLRPLLQKWVEGAD [E77G] | -0.124 ± 0.079
EESQDIKALQKELEQFAKLLKQKRITLGYTQADVGLTLGVLFGKVFSQTTICRFEALQLSFKNMCKLRPLLQKRVEEAD [W74R] | -0.734 ± 0.27
EESQDIKALQKELEQFAKLLKQKRITLGYTQADVGLTLGVLFGKVFSQTTICRFEALQLSFKNMCKLRPLLQKDVEEAD [W74D] | -0.447 ± 0.28
EESQDIKALQKELEQFAKLLKQKRITLGYTQADVGLTLGVLFGKVFSQTTICRFEALQLSFKNMCKLRPLLQKEVEEAD [W74E] | -0.138 ± 0.34
EESQDIKALQKELEQFAKLLKQKRITLGYTQADVGLTLGVLFGKVFSQTTICRFEALQLSFKNMCKLRPLLQKGVEEAD [W74G] | -0.158 ± 0.18
EESQDIKALQKELEQFAKLLKQKRITLGYTQADVGLTLGVLFGKVFSQTTICRFEALQLSFKNMCKLRPLLQKVVEEAD [W74V] | -0.264 ± 0.3
EESQDIKALQKELEQFAKLLKQKRITLGYTQADVGLTLGVLFGKVFSQTTICRFEALQLSFKNMCKLRPLLQKFVEEAD [W74F] | -0.131 ± 0.47

From the Human Domainome abundance scans (Beltran et al. 2025)
